# Laboratory results reported in IntAct's records for PubMed 17196169.
# B1: Programmed cell death protein 6 (Homo sapiens), O75340 (parent)
# chain: MAAYSYRPGPGAGPGPAAGAALPDQSFLWNVFQRVDKDRSGVISDTELQQALSNGTWTPFNPVTVRSIISMFDRENKAGVNFSEFTGVWKYITDWQNVFRTYDRDNSGMIDKNELKQALSGFGYRLSDQFHDILIRKFDRQGRGQIAFDDFIQGCIVLQRLTDIFRRYDTDQDGWIQVSYEQYLSMVFSIV
# partner: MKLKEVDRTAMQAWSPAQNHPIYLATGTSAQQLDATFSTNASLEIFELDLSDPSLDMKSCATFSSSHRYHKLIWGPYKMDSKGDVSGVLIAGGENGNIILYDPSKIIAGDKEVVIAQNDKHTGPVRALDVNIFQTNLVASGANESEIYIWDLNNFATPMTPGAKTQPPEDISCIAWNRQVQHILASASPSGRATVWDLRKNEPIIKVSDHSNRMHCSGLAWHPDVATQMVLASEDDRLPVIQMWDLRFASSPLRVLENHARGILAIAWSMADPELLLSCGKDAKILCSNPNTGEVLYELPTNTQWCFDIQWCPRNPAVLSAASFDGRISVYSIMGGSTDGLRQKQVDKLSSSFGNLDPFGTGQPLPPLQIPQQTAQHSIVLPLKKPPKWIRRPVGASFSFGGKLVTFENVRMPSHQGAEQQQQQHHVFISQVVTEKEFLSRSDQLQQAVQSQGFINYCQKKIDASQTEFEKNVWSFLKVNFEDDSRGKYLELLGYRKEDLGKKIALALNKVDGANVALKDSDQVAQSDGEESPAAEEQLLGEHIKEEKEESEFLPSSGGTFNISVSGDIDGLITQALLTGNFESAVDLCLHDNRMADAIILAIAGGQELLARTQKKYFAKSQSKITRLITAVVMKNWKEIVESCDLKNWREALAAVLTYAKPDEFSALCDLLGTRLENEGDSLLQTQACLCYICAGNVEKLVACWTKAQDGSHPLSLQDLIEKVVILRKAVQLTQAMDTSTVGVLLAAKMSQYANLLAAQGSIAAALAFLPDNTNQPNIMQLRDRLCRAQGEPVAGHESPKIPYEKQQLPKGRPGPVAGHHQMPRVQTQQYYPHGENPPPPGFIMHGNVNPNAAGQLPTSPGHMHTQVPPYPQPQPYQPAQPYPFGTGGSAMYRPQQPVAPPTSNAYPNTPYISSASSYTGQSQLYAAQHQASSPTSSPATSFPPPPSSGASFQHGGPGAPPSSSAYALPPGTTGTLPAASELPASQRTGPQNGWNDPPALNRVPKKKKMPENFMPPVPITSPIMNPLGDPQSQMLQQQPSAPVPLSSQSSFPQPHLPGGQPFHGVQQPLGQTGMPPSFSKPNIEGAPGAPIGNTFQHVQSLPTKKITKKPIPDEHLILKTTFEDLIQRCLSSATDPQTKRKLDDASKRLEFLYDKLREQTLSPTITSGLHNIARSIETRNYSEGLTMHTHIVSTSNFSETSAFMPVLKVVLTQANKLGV
# Variants of: B1
# Settings: with sc31a_human SEC31A
row,Variant,effect of a mutation on the interaction
1,E47A;E114A,decreasing interaction
